The nature of the data set: label from the status in PepcDB records.
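Note: failed if final PepcDB status was selected cloned or expressed and not failed if soluble or beyond.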

For “MNQCRLRSLARIRRSLTLGLRGTDQHVLARQALRTIQTTSQRRGVHDLDSFANGCSAAYIEGLYNKWKRNPSSVDESWNELFSSNDWSSPKRSPLQVSHSRKYRRPPVERIAVKARSGERTASGGASAAPAAPPSDWKNIDDHHVIQAIIRAYQSRGHLAADLDPLGIVGPKKRTSVDGTQRHAAREVLRQHFSYIFNDLNTVFKLPSSTMIGGDQEFLSLKEILDRLERIYCGHIGVEYMQITSLTKTNWLRDRFEKPGGLDLTKEEKKLILERLTRSTGFENFLAKKFSSEKRFGLEGCDIMIPAIKEVVDRATDHGVESILIGMAHRGRLNVLANICRKPISDILSQFHGLQATDSGSGDVKYHLGVFQERLNRQTNRMVRITVVANPSHLEHVNPVLLGKARAEMFQRGDTCGSTVMPIIIHGDASFSGQGVVYESMHLSDLPNYTTYGTIHIVSNNQVGFTTDPRFSRSSRYCTDVAKVVNAPILHVNADDPEACIQCARIAIDYRTRFKKDVVIDIVGYRRNGHNEADEPMFTQPLMYQRIKKLKPCLQLYADKLIKEGVVTDSEFKAMVSSYEKICEDAWAKSKTIKTIKYSSWIDSPWPGFFEGRDRLKLCPTGISTDTLKTIGNMFSTPPPPEHKFETHKGILRILAQRTQMVQDKVADWSLGEAFAFGSLLKEGIHVRLSGQDVERGTFSHRHHVLHHQSEDKVVYNSLDHLYPDQAPYSVSNSSLSECAVLGFEHGYSMASPNALVMWEGQFGDFCNTAQCIIDTFIASGETKWVRQSGVVMLLPHSMEGMGPEHSSGRIERFLQMSDDDPDVYPDTCDADFVARQLMNVNWIVTNLSTPANLFHCLRRQVKMGFRKPLINFSPKSLLRHPLARSPFKDFNECSCFQRIIPDKGPAGKQPDCVQKLVFCSGKVYYDLVKERDDHEQVETVALVRVEQLCPFPYDLISQQLELYPKAELLWAQEEHKNMGAWSYVQPRFDTALLKNENESRCVSYHGRPPSASPATGNKVQHYNEYKALITSIFGELTPENKKRIEDRIKKQQAKAKADAQSKPSTKPPAAPPKGGSSPPPGPAPRKPLISLPSRPPRGGKQRSGSAPAPNLVDEDSAARNREPDASAYDGASPSAWKRSGSAPAPSVVPRASASRSPSRKSPSPSHDGISPSTRQESLSKKKSGSAPAPTPTSRGPFRTAPSNTEFIKRRPAKDYGSRNETQSTPGESELDPTKPQP”, the protein production result is listed as “failed”.
As to “MNQGKIITVSGPLVVASGMQEANIQDICRVGHLGLVGEIIEMRRDQASIQVYEETSGIGPGEPVVTTGCPLSVELGPGLISEMFDGIQRPLDRFQKATDSDFLIRGVAIPSLDRKAKWAFIPKLSVGQEVVAGDILGTVQETAVIEHRIMVPYKVSGTLVAIHAGDFTVTDTVYEIKQEDGSIYQGSLMQTWPVRQSRPVAQKLIPVEPLVTGQRVIDTFFPVTKGGAAAVPGPFGAGKTVVQHQIAKFANVDIVIYVGCGERGNEMTDVLNEFPELIDPNTGQSIMERTVLIANTSNMPVAAREASIYTGITIAEYFRDMGYSVAIMADSTSRWAEALREMSGRLQEMPGDEGYPAYLGSRIAEYYERAGRVRTLGSQEREGTITAIGAVSPPGGDISEPVTQNTLRIVKVFWGLDAPLAQRRHFPAINWLTSYSLYQDDVGSYIDRKQQSNWSNKVTRAMAILQREASLEEIVRLVGLDSLSEQDRLTMAVARQIREDYLQQNAFDSVDTFTSFPKQEAMLTNILTFNEEASKALSLGAYFNEIMEGTAQVRDRIARSKFIPEENLEQIKGLTQKVTKEIHHVLAKGGI”, the protein production result is “failed”.
To “MNQLPNCPKCLSEYCYEDGDVLICPECTHEWPKNSNNNDEESAKIIKDANGNLLQNGDTITVVKDLKIKGSSQVIKVGTKVKNIRLVDGDHDIDCRIDGIGAMKLKSQFVKKILEHHHHHH” belongs “failed”; to “MNQNKITAGGLEFLVRFAAPTDRLKINDLMIDTARWLKESGSTQWSDILHGFDVHNIEQRIELGEVALFETEAGALAGAMIIRKTPSDWDTDLWEDLAIDKAYYLHRIMVSRAFSGISLSKQMIYFAEKLGIEMSVPFIRLDCIESNETLNQMYVRYGFQFSGKKNGFYLYQKELSQK”, “not failed”; to “MNQNWHATLIRHLLLLITVCLIGGLVSGYYGWSLAIGLALYLGWTLKQLLRLHDWLRNHQPDEAPPDGYGLWGEVFDSIYHLQRRDQRVRGRLQAVIDRVQESTAALRDAVIMLDSDGNLEWWNRAAETLLGFKTPQDGGQQVTNLVRHPLFKEYFEAENYLEPLEIPSPINDRMRVQLHITRYGNNEHLMLVRDVTRIHQLEQMRKDFVANVSHELRTPLTVITGYLETLLDNVEDVNPRWSRALQQMSQQGSRMQTLLNDLLLLAKLEATDYPSDNQPVAVDALLAAIKNDAQALSGPRNQRINLEAAPGVKLKGSESELRSAFSNLVFNAVKYTQDEGSIRIRWWADAQGAHLSVQDSGVGIDAKHLPRLTERFYRVDSSRASNTGGTGLGLAIVKHVLMRHRGKLEISSVPGHGSTFTCHFAPAQLANEKA”, “failed”.
Turning to “MNQPDIKGSCASEFTKVRDAFERNFVLRNEVGAAVAVWVDGDLVVNLWGGSADAGGTRPWQHDTLATVLSGTKALTATCVHQLVDRGELDLHAPVARYWPEFGQAGKQAITLAMVMSHRSGAIGPRGRLGWEQVADWDFVCEQLAAAEPWWQPGAAQGYHMTTFGFILGEVFRRVTGRTVGQYLRTEIAEPLGADVHIGLHPGEQLRCADLVDKPHIRQLLADVQAPGYPTSLNEHPKAALSVSMGFAPDDELGSNDLQLWRQIEFPGTNGQVSALGLATFYNGLAQEKLLSREHMELVRVSQGGFDTDLVLGPRVADHGWGLGYMLNQRGVNGPNPRIFGHGGLGGSFGFVDLEHRIGYAYVMNRFDATKANADPRSVVLSNEVYAALGVNRS”, the protein production entry is recorded as “failed”.
For “MNQQLLAKTFVELADNLVADFDLIDFLRLLTDRCVGMLDASAAGVLLADRNGELRVMAASDEQVRLLELFQLQNDEGPCLDCFRTGAPVTVPDLSAVTARWPRFAVQARRSGFGAVQALPMRLRDEVVGALNLFRATPGPFDPAATPLAQALADVATISLLQQRTAHRSTVLNEQLQTALNSRVLIEQAKGKLAERQGVDMERAFTALRTYARAHNRRLSDVARAFIDNSEPLTGLGS”, the protein production entry is on record as “failed”.
As for “MNRFSRARSYISLVLFRKSSYVTSHIPWNQCFYTSLKSSLKPASVSVSSVHCYSSRSKTAKSKMSKSSVSVSDSDKEKDAFFVVRKGDIVGIYKDLIDCQAQVGSSVYDPPVSVYKGYSLLKDTEECLSTVGLKKPLYVFRALDLKEDMFGALTPCLFQDQLPSASMSVEKLAELEPSADTSYETCIIEFDGASKGNPGLSGAAAVLKTEDGSLIFKMRQGLGIATNNAAEYHGLILGLKHAIEKGYTKIKVKTDSKLVCMQMKGQWKVNHEVLSKLHKEAKQLSDKCLSFEISHVLRSLNSDADEQANMAARLSEGEVEVA”, the protein production result is “failed”.
Consider “MNRIKEVLEEKGIKQTWLAEKLGKSFSIVNSYVCNRRQPSLDILFEIAKILEVDVRVLIGTKENRQKSK”, for which the protein production result was “not failed”.
Regarding “MNRLREALKERGITQTELSTRLGKSFNMVNLYVANKHQPSIPTLFQIAEILDMDVRDLLVSNKQQNK”, the protein production result is “failed”.
With “MNRLRTSLTALAAAITLSGLANAATRYEELANQPFEKGFPTETAARNLIDELVFQRAVQSYLWALPAINIWSMKEASEKEFGAGYNILPTWKKRINAKTLVTTPNSDLVYAMSYLDLQKYGPLVVEAPPGVQGMFDDFFQRPIVGPTIDGKTWRGDVGLAGPDKGKGGTYVLLPPDYKGPEPTEGYVYRSRTNNVFLFWRTFFKDPKDLSVPVAEVERTKIYPLGKKDEALPMQFPDATGAPINMLFPEDGRYFDMLSRFIDAEAVDPADMDMRGFLHTLGIEKGKPFAPDAQRRKLLDEAARTAFKMSKVVTSHLLLKEPGGLYYKDRQYVNTFAGENTEFQSSGSFTNLEQRVAFFTSAYSDSPGMVMNMVGAGAKYPATTRDADGKFLDGAQTYKLNLPANVPAALFWSVTAYDNLTASGLDNGQPFPSLNQMDKPVQNSDGSTDIYFGPKSPGEGKNWIKTVPDKGFLVIVRLYGPKQAFFDQSWKPSDLLKQ”, the protein production result was “failed”.
To “MNRRDFLQFGLRGIVVAGLGKGFYNTTSEQVEIVRTSVKIRNLPAALQGLKIGLLTDLHASFVVSSETIRSAGRLLMAEKPDLIVMTGDYISGSTRFLSGSVGQFKKEYLSKCIDALSGLKAPLGIYGVLGNHDFWSGPESVKAICEAFTRQMGMVWLRNSSVEIRRGRGSLHLLGVDDYWEPSCSLAAACKGVDTDGIKILLSHNPDINDEIFLLRERIDLVLSGHTHGGQVVVPFLGQPVMPSKFGQKYRAGLVRDGDRQTYISRGVGCLLAPIRLNCPPEATVLTLTLEHHHHHH” belongs “not failed”.

Values taken from a protein production outcome set (Wang et al. 2014).
